Laboratory results published in patent US20250320277A1.

Assays:
[1] = target: CHIKV p62-E1 (Chikungunya virus); assay: BLI, mAb on anti-human Fc sensor
[2] = target: CHIKV p62-E1 (Chikungunya virus)
[3] = target: CHIKV p62-E1 (Chikungunya virus); assay: ELISA, plate-coated p62-E1, eight-point mAb dilution
[4] = target: CHIKV p62-E1 (Chikungunya virus); assay: BLI, […], global 1:1 fit; […]
[5] = target: MAYV p62-E1 (Mayaro virus (BeAr 20290)); assay: ELISA, plate-coated p62-E1, eight-point mAb dilution

B1: DC2.M301 (antibody, V domains shown)
VH: QVQLVQSGAEVKKPGAAVKVSCKASGYTFSGYYIHWVRQAPGQGLEWMGWINPNSGGTDFAQKFQGRVTMTRDTSISTAYMELSRLRSDDTAVYLCSRDPGYTYGYPLGYWGQGTLVTVSS
VL: ETTLTQSPGTLSLSPGERATLSCRASQSVSSSYLAWYQQKPGQAPRLLIYGTSSRATGIPDRFSGRGSGTDFTLTISRLEPEDFAVYYCQQYGNSPPYTFGQGTKVDIK
fold higher binding affinity for CHIKV p62-E1 than MAYV p62-E1 [1]: 10 fold
kon [2]: 260000 M⁻¹ s⁻¹
EC50 [3]: 0.88 nM
Kd [4]: 1.6 nM

B2: DC2.M342 (antibody, V domains shown)
VH: QVQLVQSGAEVKKSGSSVTVSCKASGSTFISHAISWVRQAPGEGLEWMGRLIPVSGTPKYAHKFQGRLTITADDSTTTVYLTLRSLRFEDTAVYYCATWDADSTTLLYYFMDVWGKGTTVTVSS
VL: DIQVTQSPSTLSASVGDRVTITCRASQSISRWLAWYQQKPGKAPKLLIYKASSLESGVPSRFSGTGSGTEFTLTISSLQPDDFATYYCQQYNSYSTWTFGQGTKLEIK
EC50 [3]: 35 nM
EC50 [5]: 130 nM

B3: DC2.M5 (antibody, V domains shown)
VH: EVQLVESGGGLVQPGGSLSLACEVSGFILSDHYIDWVRQAPGKGLEWVGRSRNKAKRYTTEYAASVKGRFTISRDDSNNSLYLLMKSLKTEDTAVYFCTRAGYYDKNGDSLDALDIWGQGTMVTVSS
VL: DIQVTQSPSSLSASVGDRVTITCRTSQTVSSNLNWYQQRPGKAPKLLISGISDLHSGVPSRFSGSGSGTDSTLTISSLQPEDSATYYCQQSYSLPRTFGQGTKVEIK
EC50 [3]: 33 nM
EC50 [5]: 39 nM

B4: DC2.M17 (antibody, V domains shown)
VH: EVQLVESGSELKKPGASVRVSCEASGYSFTSHTIVWMRQAPGQGLECLGWINTNTGNPTYAQGFTGRFVFSLDTSVSTAYLQISSLKAADTAVYYCARVLKCLGGSASCSGHGYYDYGMAVWGQGTTVTVSS
VL: DIVLTQSPLSLPVTPGEPASISCRSSQSLLHSNGYNFLHWYLQKPGQSPQLLIYLGSIRASGVPDRFSGSGSGTDFTLKISRVEAEDVGVYYCMQALQTFMYTFGQGTKLEIK
EC50 [3]: 0.9 nM

B5: DC2.M287 (antibody, V domains shown)
VH: EVQLVESGGGLVQPGGSLRLSCAASGFTFRDYWMIWVRQTPGKGLEWVANINRNGNEKHYVDSLKGRFTISRDNTKNSLYLQVNGLSAEDTAVYYCVRDSSPSFGPGNYYDAFDIWGQGTTVTVSS
VL: DIRVTQSPSSLSASVGDRVTITCRASQDIRNEVGWYQQKPGQAPKVLIFAASTLQSGVPSRFRGSGSGTVFTLTISSLQPEDLATYYCLQDFNYPRTFGQGTKVDIK
EC50 [3]: 43 nM

B6: DC2.M336 (antibody, V domains shown)
VH: QVQLVQSGGRLVKPGGSLRLSCAASGFTIIDSYMSWIRQAPGKGLEWISYINPSGSVIYYSDSVKGRFISSRDNAKNSVYLQLSSLRAEDAAVYYCARGIYDQSDAFDLWGQGTTVTVSS
VL: DIVLTQSPSSLSASVGDRVTITCRASQGISNSLAWYQQRPGKAPKLLIYGASRLGSGVPSRFSGSGSGADYTLTISGLQPEDFATYYCQQYYITPPMTFGPGTKVDIK
EC50 [3]: 0.9 nM
EC50 [5]: 12.5 nM
